The source of these data is patent US10858688B2, “Observation method using binding and dissociation probe” (KYOTO UNIVERSITY, priority 2015, dated 2020).

Assay [1] concerns intermediate filament. Description: Localization test of probe candidates (integrated SiMS images). Further details: key: “localization” is positive (P) when above criterion (1) is met. The format is cell-based, Xenopus laevis. Particulars: fixed, permeabilized XTC cell; lysate supernatant of EGFP fused probe; TIRF, 10000 frames. The protocol:
HEK (Human embryonic kidney)-293F cells were transfected with a plasmid encoding a probe candidate protein tagged with FLAG-EGFP or 3×FLAG-EGFP. […] Centrifugal separation was performed on the lysate and the supernatant liquid was collected. In order to perform screening for a probe for IRIS, the binding capacity of a probe candidate in the supernatant liquid with respect to the structure of an XCT cell that was fixed with paraformaldehyde (PFA) and that received a permeabilization process was tested. The appearance and disappearance of single molecule speckles (Single-molecule speckles, SiMS) in the structure was tested. Screening was performed for a probe for IRIS in accordance with the following criteria:
(1) It is possible to confirm a distribution of target substances in the structure in an image resulting from adding SiMS images;
The localization test of the above (1), whose result is shown in table 1, was performed in the following procedures. First, the supernatant liquid of lysate of a cell that expressed each probe candidate was brought into contact with an XCT cell that was fixed on a coverglass and that received a permeabilization process. […] The obtained speckle images of 10000 frames were integrated so as to confirm whether or not a distribution of target substances in the cell (microtubule, intermediate filament, focal adhesion or actin filament) was able to be confirmed. When a distribution of a target substances was able to be confirmed, the result of the localization test was treated as P (positive).

In assay [2] the test system is intermediate filament. Description: Measurement of binding half-life of probe-target complex. Further details: species or system Xenopus laevis. The conditions noted are these: fixed XTC cell, single exponential fit. An excerpt: A probe and a target substance have the following binding characteristics. […] The above half-life herein is preferably a half-life of a probe-target complex formed by binding between a probe and a target substance in a case when a medium containing a probe and a sample containing a target substance that is to be observed are brought into contact under a condition for performing an imaging step. […] Measurement procedures for the half-life are as below. […] Ndissociation is a cumulative relative frequency of a probe that dissociated. A cumulative relative frequency is a ratio of the speckles that disappeared within a given period of time to the total number of measured speckles (i.e. probes) (i.e. probes that dissociated within a given period of time), and represents the total number as 1. Then, by fitting the above complementary cumulative relative frequency function with an exponent function, that half-life is calculated.
The measurement of binding half-life, whose result is shown in table 1, was performed in the following procedures. Speckle images of 10000 frames picked up in the localization test were used in order to measure a period of time between the appearance of a probe that has bound to a target in a speckle image and disappearance through dissociation in a semi-manual mode by using Speckle TrackerJ, an ImageJ plug-in. In case of for example picking up of images with an exposure time of 50 ms and at a frame rate of 20 Hz, it is assumed that a period of time between the appearance and disappearance of a speckle that is observed in only one of consecutive frames is 50 ms and a period of time between the appearance and disappearance of a speckle observed in only two consecutive frames is 100 ms. […] Ndissociation is a cumulative relative frequency of probes that dissociated. Then, by fitting the complementary cumulative relative frequency function with an exponent function, the half-life was calculated. However, the binding half-life with respect to an actin filament of Atto488-Lifeact was measured by using a method that is described in detail in the section for FIG. 9 in the Brief Description of the Drawings.

Assay [3] relates to intermediate filament. Description: Washability test of probe candidates. The format is cell-based, Xenopus laevis. Further details: key: “washability” is positive (P) when above criterion (2) is met. The conditions noted are these: speckles equal to or less than about 10% after switching imaging solution 10 to 20 times. The procedure: (2) It is possible to wash and remove a probe after SiMS imaging (imaging step);
The […] of the above (2), whose result is shown in table 1, was performed in the following procedures. […] This switching of imaging solution was conducted slowly so that the observation position would not shift. Next, an imaging solution not containing a probe and not containing the active oxygen-scavenging mix was switched 10 to 20 times. After the switching, for confirmation, for an XCT cell sample in the observation chamber, speckle images of 10 frames were picked up under a similar condition to that of the localization test described in the previous paragraph, and when the number of speckles confirmed in the speckle images (i.e., the number of probes that had bound) became sufficiently smaller (equal to or less than about 10%) than the number of the speckles in the speckle images before the washing operation, washing was determined to be possible and the result was treated as P (positive).

The subject of assay [4] is intermediate filament. Briefly: IRIS image test (reconstruction image). The format is cell-based, Xenopus laevis. Further details: key: “IRIS image” is positive (P) when above criterion (3) is met. The conditions noted are these: reconstruction from 10000 frames with DAOSTORM
The protocol: […] It is possible to reconstruct an image of a target substance by integrating the central positions of the respective speckles. The IRIS image test of the above (3) whose result is described in table 1 was performed in the following procedures. By using all the speckle images of 10000 frames picked up in the localization test, the central point of a probe that has bound to a target in each frame of the speckle images was determined with nanometer accuracy by using DAOSTORM. By adding a large number of pieces of central point information in the fluorescence images of 10000 frames, a reconstruction image (observation image) was generated. Whether or not a distribution of a target molecule was able to be observed in that reconstruction image was determined, and when a distribution of a target molecule was observed, the result was treated as P (positive).

B1: Plectin-1 4066-4364: EGFP fused (N terminus) human Plectin-1 fragment, residues 4066-4364 of sequence number 8 (protein, listed as Homo sapiens)
chain: LEGTSCIAGVFVDATKERLSVYQAMKKGIIRPGTAFELLEAQAATGYVIDPIKGLKLTVEEAVRMGIVGPEFKDKLLSAERAVTGYKDPYSGKLISLFQAMKKGLILKDHGIRLLEAQIATGGIIDPEESHRLPVEVAYKRGLFDEEMNEILTDPSDDTKGFFDPNTEENLTYLQLMERCITDPQTGLCLLPLKEKKRERKTSSKSSVRKRRVVIVDPETGKEMSVYEAYRKGLIDHQTYLELSEQECEWEEITISSSDGVVKSMIIDRRSGRQYDIDDAIAKNLIDRSALDQYRAGTL
modifications: N-terminal EGFP fusion
Take B1: the LOCALIZATION entry in the assay with intermediate filament [1] is “P”. For the same molecule, in the assay on intermediate filament [2], the HALF-LIFE is 7.7 s. Moreover, the WASHABILITY entry in the assay with intermediate filament [3] is reported as “P”.

B2: Plectin-1 3777-4313: EGFP fused (N terminus) human Plectin-1 fragment, residues 3777-4313 of sequence number 8 (protein, UniProt Q15149 3777-4313, looked up, fragment)
chain: YDYVRRRLTAEDLFEARIISLETYNLLREGTRSLREALEAESAWCYLYGTGSVAGVYLPGSRQTLSIYQALKKGLLSAEVARLLLEAQAATGFLLDPVKGERLTVDEAVRKGLVGPELHDRLLSAERAVTGYRDPYTEQTISLFQAMKKELIPTEEALRLLDAQLATGGIVDPRLGFHLPLEVAYQRGYLNKDTHDQLSEPSEVRSYVDPSTDERLSYTQLLRRCRRDDGTGQLLLPLSDARKLTFRGLRKQITMEELVRSQVMDEATALQLREGLTSIEEVTKNLQKFLEGTSCIAGVFVDATKERLSVYQAMKKGIIRPGTAFELLEAQAATGYVIDPIKGLKLTVEEAVRMGIVGPEFKDKLLSAERAVTGYKDPYSGKLISLFQAMKKGLILKDHGIRLLEAQIATGGIIDPEESHRLPVEVAYKRGLFDEEMNEILTDPSDDTKGFFDPNTEENLTYLQLMERCITDPQTGLCLLPLKEKKRERKTSSKSSVRKRRVVIVDPETGKEMSVYEAYRKGLIDHQTYLELSEQEC
modifications: N-terminal EGFP fusion
In the case of B2, the LOCALIZATION entry in the assay on intermediate filament [1] was “P”. Further, in the assay with intermediate filament [4], the “IRIS IMAGE” value is “P”. The molecule also returned an HALF-LIFE in the assay with intermediate filament [2] of 0.052 s. Besides, the WASHABILITY result with intermediate filament [3] was “P”.

B3: Plectin-1 3777-4684: EGFP fused (N terminus) human Plectin-1 fragment, residues 3777-4684 of sequence number 8 (protein, listed as Homo sapiens)
chain: YDYVRRRLTAEDLFEARIISLETYNLLREGTRSLREALEAESAWCYLYGTGSVAGVYLPGSRQTLSIYQALKKGLLSAEVARLLLEAQAATGFLLDPVKGERLTVDEAVRKGLVGPELHDRLLSAERAVTGYRDPYTEQTISLFQAMKKELIPTEEALRLLDAQLATGGIVDPRLGFHLPLEVAYQRGYLNKDTHDQLSEPSEVRSYVDPSTDERLSYTQLLRRCRRDDGTGQLLLPLSDARKLTFRGLRKQITMEELVRSQVMDEATALQLREGLTSIEEVTKNLQKFLEGTSCIAGVFVDATKERLSVYQAMKKGIIRPGTAFELLEAQAATGYVIDPIKGLKLTVEEAVRMGIVGPEFKDKLLSAERAVTGYKDPYSGKLISLFQAMKKGLILKDHGIRLLEAQIATGGIIDPEESHRLPVEVAYKRGLFDEEMNEILTDPSDDTKGFFDPNTEENLTYLQLMERCITDPQTGLCLLPLKEKKRERKTSSKSSVRKRRVVIVDPETGKEMSVYEAYRKGLIDHQTYLELSEQECEWEEITISSSDGVVKSMIIDRRSGRQYDIDDAIAKNLIDRSALDQYRAGTLSITEFADMLSGNAGGFRSRSSSVGSSSSYPISPAVSRTQLASWSDPTEETGPVAGILDTETLEKVSITEAMHRNLVDNITGQRLLEAQACTGGIIDPSTGERFPVTDAVNKGLVDKIMVDRINLAQKAFCGFEDPRTKTKMSAAQALKKGWLYYEAGQRFLEVQYLTGGLIEPDTPGRVPLDEALQRGTVDARTAQKLRDVGAYSKYLTCPKTKLKISYKDALDRSMVEEGTGLRLLEAAAQSTKGYYSPYSVSGSGSTAGSRTGSRTGSRAGSRRGSFDATGSGFSMTFSSSSYSSSGYGRRYASGSSASLGGPESAVA
modifications: N-terminal EGFP fusion
Turning to B3, in the assay on intermediate filament [1], the LOCALIZATION result is on record as “P”. The “IRIS IMAGE” value in the assay with intermediate filament [4] is given as “P”. In addition, the HALF-LIFE in the assay on intermediate filament [2] turned out to be 0.457 s. Besides, the WASHABILITY entry in the assay with intermediate filament [3] is “P”.

B4: Plectin-1 4022-4364: EGFP fused (N terminus) human Plectin-1 fragment, residues 4022-4364 of sequence number 8 (protein, listed as Homo sapiens)
chain: FRGLRKQITMEELVRSQVMDEATALQLREGLTSIEEVTKNLQKFLEGTSCIAGVFVDATKERLSVYQAMKKGIIRPGTAFELLEAQAATGYVIDPIKGLKLTVEEAVRMGIVGPEFKDKLLSAERAVTGYKDPYSGKLISLFQAMKKGLILKDHGIRLLEAQIATGGIIDPEESHRLPVEVAYKRGLFDEEMNEILTDPSDDTKGFFDPNTEENLTYLQLMERCITDPQTGLCLLPLKEKKRERKTSSKSSVRKRRVVIVDPETGKEMSVYEAYRKGLIDHQTYLELSEQECEWEEITISSSDGVVKSMIIDRRSGRQYDIDDAIAKNLIDRSALDQYRAGTL
modifications: N-terminal EGFP fusion
In the case of B4, the LOCALIZATION result with intermediate filament [1] is on record as “P”. In the assay with intermediate filament [4], the “IRIS IMAGE” value is reported as “P”. Moreover, the HALF-LIFE in the assay on intermediate filament [2] came out at 0.103 s. Further, the WASHABILITY result in the assay with intermediate filament [3] is listed as “P”.

B5: Plectin-1 3777-4364: EGFP fused (N terminus) human Plectin-1 fragment, residues 3777-4364 of sequence number 8 (protein, UniProt Q15149 3777-4364, looked up, fragment)
chain: YDYVRRRLTAEDLFEARIISLETYNLLREGTRSLREALEAESAWCYLYGTGSVAGVYLPGSRQTLSIYQALKKGLLSAEVARLLLEAQAATGFLLDPVKGERLTVDEAVRKGLVGPELHDRLLSAERAVTGYRDPYTEQTISLFQAMKKELIPTEEALRLLDAQLATGGIVDPRLGFHLPLEVAYQRGYLNKDTHDQLSEPSEVRSYVDPSTDERLSYTQLLRRCRRDDGTGQLLLPLSDARKLTFRGLRKQITMEELVRSQVMDEATALQLREGLTSIEEVTKNLQKFLEGTSCIAGVFVDATKERLSVYQAMKKGIIRPGTAFELLEAQAATGYVIDPIKGLKLTVEEAVRMGIVGPEFKDKLLSAERAVTGYKDPYSGKLISLFQAMKKGLILKDHGIRLLEAQIATGGIIDPEESHRLPVEVAYKRGLFDEEMNEILTDPSDDTKGFFDPNTEENLTYLQLMERCITDPQTGLCLLPLKEKKRERKTSSKSSVRKRRVVIVDPETGKEMSVYEAYRKGLIDHQTYLELSEQECEWEEITISSSDGVVKSMIIDRRSGRQYDIDDAIAKNLIDRSALDQYRAGTL
modifications: N-terminal EGFP fusion
Regarding B5, the LOCALIZATION entry with intermediate filament [1] is on record as “P”. Also, the “IRIS IMAGE” value in the assay on intermediate filament [4] was “P”. Besides, the HALF-LIFE in the assay with intermediate filament [2] is 0.059 s. Also, the WASHABILITY result in the assay with intermediate filament [3] is on record as “P”.
